Article PMC10491619

Target: Exchange Protein Activated by cAMP 1, purified recombinant wild type
Test: phase separation measured by centrifugation and A280 of the cleared supernatant; purified protein alone, with 30 uM cAMP; 5-25 uM protein at 50-250 mM NaCl, 25 mM Tris-HCl pH 8.8, 5 mM MgCl2; 20 °C, 15 min; 16,900 x g, 30 min

Chain of Exchange Protein Activated by cAMP 1, purified recombinant wild type (O95398 whole entry): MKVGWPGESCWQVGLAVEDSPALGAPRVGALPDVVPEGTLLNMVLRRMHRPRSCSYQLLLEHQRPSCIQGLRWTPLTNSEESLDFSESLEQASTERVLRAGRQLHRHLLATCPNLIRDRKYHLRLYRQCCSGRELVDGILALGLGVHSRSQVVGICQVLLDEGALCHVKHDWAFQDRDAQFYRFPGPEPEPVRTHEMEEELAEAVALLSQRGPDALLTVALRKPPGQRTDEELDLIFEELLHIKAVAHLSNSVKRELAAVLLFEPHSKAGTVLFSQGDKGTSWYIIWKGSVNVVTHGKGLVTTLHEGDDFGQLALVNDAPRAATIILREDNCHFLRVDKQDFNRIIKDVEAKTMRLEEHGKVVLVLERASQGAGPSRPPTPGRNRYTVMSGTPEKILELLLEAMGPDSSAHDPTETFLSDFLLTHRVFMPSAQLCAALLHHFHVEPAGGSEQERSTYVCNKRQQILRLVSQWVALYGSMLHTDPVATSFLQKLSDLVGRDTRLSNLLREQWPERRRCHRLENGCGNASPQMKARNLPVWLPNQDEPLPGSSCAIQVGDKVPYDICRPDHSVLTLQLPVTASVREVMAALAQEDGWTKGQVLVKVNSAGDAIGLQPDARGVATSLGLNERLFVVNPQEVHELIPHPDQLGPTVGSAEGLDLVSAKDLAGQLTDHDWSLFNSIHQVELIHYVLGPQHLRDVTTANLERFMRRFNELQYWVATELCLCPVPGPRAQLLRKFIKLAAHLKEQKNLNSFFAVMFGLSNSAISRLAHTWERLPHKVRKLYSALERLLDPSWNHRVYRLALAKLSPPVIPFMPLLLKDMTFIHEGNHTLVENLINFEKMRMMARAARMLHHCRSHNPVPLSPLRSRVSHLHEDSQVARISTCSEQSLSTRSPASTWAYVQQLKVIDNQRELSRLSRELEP

- condensation ratio +cAMP/-cAMP at 150 mM salt: 2.5
- percent of protein in condensates (150 mM salt, with cAMP): 50%
Substance: Exchange Protein Activated by cAMP 1, purified recombinant wild type (natural protein)
